In paper PMC9168836, “Clamping of DNA shuts the condensin neck gate” (Proceedings of the National Academy of Sciences of the …, 2021):

How the values were obtained:
Ycg1 = target: T1, Ycg1 (budding yeast (S. cerevisiae), UniProt Q06680 1-1035); assay: cryo-EM structure; condensin pentamer (Smc2, Smc4, Brn1, Ycs4, Ycg1) with 80-bp dsDNA, 5 mM ADP, 1 mM BeSO4, 10 mM NaF in TNT buffer pH 7.5; separate maps of the clamped head module and of Ycg1-DNA; settings: both partners purified
T1 construct: Ycg1, HAWK (HEAT repeat) subunit of budding yeast (S. cerevisiae) condensin
T1 sequence: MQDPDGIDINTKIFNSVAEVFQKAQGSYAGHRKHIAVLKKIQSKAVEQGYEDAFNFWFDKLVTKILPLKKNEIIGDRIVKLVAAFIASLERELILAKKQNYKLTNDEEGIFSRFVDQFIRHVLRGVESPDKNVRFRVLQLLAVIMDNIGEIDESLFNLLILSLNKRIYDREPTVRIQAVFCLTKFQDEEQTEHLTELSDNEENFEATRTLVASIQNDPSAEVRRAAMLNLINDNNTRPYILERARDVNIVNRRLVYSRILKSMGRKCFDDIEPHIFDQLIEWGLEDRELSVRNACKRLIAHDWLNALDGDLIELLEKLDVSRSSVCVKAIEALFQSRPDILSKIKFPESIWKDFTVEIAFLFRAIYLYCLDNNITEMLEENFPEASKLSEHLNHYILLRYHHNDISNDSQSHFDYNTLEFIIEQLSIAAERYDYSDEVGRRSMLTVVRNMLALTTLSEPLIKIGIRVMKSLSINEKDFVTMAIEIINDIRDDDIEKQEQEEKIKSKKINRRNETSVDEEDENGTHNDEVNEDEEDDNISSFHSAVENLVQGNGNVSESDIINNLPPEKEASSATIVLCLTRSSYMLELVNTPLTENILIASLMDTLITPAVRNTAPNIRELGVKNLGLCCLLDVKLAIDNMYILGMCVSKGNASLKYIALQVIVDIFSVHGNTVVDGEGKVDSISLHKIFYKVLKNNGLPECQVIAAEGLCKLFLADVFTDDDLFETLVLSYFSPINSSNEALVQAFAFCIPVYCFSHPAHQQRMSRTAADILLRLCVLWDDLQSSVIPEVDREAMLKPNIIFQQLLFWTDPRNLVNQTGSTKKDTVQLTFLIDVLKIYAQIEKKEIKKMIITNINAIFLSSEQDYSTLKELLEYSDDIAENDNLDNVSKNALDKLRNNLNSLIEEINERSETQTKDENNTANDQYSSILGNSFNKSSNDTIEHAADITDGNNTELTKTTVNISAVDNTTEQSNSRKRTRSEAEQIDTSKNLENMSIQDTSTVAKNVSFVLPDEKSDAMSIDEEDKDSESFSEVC

Smc4-3xStrepII = target: T2, Smc4-3xStrepII (budding yeast (S. cerevisiae), UniProt Q12267 1-1418); assay: as above; settings: both partners purified
T2 construct: Smc4, SMC subunit of budding yeast (S. cerevisiae) condensin; only the head domain, proximal coiled coil and residues 126-144 are resolved in the maps; The tag's end is read from the plasmid's name SMC4-3xStrepII; also called Scm4
T2 sequence: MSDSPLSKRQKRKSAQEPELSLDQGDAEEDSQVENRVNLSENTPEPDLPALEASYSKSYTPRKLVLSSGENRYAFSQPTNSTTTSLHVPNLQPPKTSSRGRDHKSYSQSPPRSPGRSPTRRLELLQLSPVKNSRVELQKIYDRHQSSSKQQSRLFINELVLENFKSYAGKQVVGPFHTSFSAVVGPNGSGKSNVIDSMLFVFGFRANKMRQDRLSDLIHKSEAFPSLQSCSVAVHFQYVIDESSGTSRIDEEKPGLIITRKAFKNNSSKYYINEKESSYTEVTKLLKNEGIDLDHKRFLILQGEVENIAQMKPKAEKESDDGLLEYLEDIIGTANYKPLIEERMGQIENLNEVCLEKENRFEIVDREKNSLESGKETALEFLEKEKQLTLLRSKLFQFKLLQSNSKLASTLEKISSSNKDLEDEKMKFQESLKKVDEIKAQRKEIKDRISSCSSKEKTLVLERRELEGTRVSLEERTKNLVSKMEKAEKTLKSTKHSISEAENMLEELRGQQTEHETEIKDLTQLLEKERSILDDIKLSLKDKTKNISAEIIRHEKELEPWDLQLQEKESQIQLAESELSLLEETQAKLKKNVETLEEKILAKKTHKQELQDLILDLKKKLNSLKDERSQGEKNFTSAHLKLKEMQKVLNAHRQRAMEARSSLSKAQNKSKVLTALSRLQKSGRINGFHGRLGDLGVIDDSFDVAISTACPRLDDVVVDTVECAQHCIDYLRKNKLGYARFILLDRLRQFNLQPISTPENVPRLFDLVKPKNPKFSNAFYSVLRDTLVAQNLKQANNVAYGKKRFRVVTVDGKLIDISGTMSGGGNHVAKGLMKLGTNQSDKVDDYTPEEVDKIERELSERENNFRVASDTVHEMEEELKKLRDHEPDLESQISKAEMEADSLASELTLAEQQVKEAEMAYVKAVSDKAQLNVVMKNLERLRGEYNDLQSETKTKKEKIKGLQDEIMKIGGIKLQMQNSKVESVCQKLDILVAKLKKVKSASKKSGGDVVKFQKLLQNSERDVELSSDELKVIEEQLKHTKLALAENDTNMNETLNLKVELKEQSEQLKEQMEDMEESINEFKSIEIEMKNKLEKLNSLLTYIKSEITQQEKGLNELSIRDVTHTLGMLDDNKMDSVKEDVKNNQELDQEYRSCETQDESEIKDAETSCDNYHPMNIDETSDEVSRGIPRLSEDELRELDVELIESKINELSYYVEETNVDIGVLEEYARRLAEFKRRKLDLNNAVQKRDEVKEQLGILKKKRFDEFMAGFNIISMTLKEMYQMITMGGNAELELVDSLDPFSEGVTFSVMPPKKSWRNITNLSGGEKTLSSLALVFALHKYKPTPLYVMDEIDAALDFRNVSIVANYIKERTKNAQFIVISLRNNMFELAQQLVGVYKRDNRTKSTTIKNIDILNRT

B1: Brn1-HA3-His12 (natural protein, budding yeast (S. cerevisiae), UniProt P38170 1-754, looked up)
chain: MTTQLRYENNDDDERVEYNLFTNRSTMMANFEEWIKMATDNKINSRNSWNFALIDYFYDLDVLKDGENNINFQKASATLDGCIKIYSSRVDSVTTETGKLLSGLAQRKTNGASNGDDSNGGNGEGLGGDSDEANIEIDPLTGMPISNDPDVNNTRRRVYNRVLETTLVEFETIKMKELDQELIIDPLFKKALVDFDEGGAKSLLLNTLNIDNTARVIFDASIKDTQNVGQGKLQRKEEELIERDSLVDDENEPSQSLISTRNDSTVNDSVISAPSMEDEILSLGMDFIKFDQIAVCEISGSIEQLRNVVEDINQAKDFIENVNNRFDNFLTEEELQAAVPDNAEDDSDGFDMGMQQELCYPDENHDNTSHDEQDDDNVNSTTGSIFEKDLMAYFDENLNRNWRGREHWKVRNFKKANLVNKESDLLEETRTTIGDTTDKNTTDDKSMDTKKKHKQKKVLEIDFFKTDDSFEDKVFASKGRTKIDMPIKNRKNDTHYLLPDDFHFSTDRITRLFIKPGQKMSLFSHRKHTRGDVSSGLFEKSTVSANHSNNDIPTIADEHFWADNYERKEQEEKEKEQSKEVGDVVGGALDNPFEDDMDGVDFNQAFEGTDDNEEASVKLDLQDDEDHKFPIRENKVTYSRVSKKVDVRRLKKNVWRSINNLIQEHDSRKNREQSSNDSETHTEDESTKELKFSDIIQGISKMYSDDTLKDISTSFCFICLLHLANEHGLQITHTENYNDLIVNYEDLATTQAAS
notes: Brn1, kleisin subunit of budding yeast (S. cerevisiae) condensin; 754 residues as printed (279/754 traced in the head module map); The tags' end is read from the plasmid's name BRN1-HA3-His12; also called kleisin Brn1
binding result (Ycg1): binds | binding result (Smc4-3xStrepII): binds
